{"source": "patent US20140348819A1", "about": "“Methods of Treating Cancer” (Dana-Farber Cancer Institute, Inc., priority 2011, published 2014)", "molecules": {"B1": {"name": "MSP (protein, UniProt P26927 19-711, looked up)", "Hepatocyte growth factor-like …": "QRSPLNDFQVLRGTELQHLLHAVVPGPWQEDVADAEECAGRCGPLMDCRAFHYNVSSHGCQLLPWTQHSPHTRLRRSGRCDLFQKKDYVRTCIMNNGVGYRGTMATTVGGLPCQAWSHKFPNDHKYTPTLRNGLEENFCRNPDGDPGGPWCYTTDPAVRFQSCGIKSCREAACVWCNGEEYRGAVDRTESGRECQRWDLQHPHQHPFEPGKFLDQGLDDNYCRNPDGSERPWCYTTDPQIEREFCDLPRCGSEAQPRQEATTVSCFRGKGEGYRGTANTTTAGVPCQRWDAQIPHQHRFTPEKYACKDLRENFCRNPDGSEAPWCFTLRPGMRAAFCYQIRRCTDDVRPQDCYHGAGEQYRGTVSKTRKGVQCQRWSAETPHKPQFTFTSEPHAQLEENFCRNPDGDSHGPWCYTMDPRTPFDYCALRRCADDQPPSILDPPDQVQFEKCGKRVDRLDQRRSKLRVVGGHPGNSPWTVSLRNRQGQHFCGGSLVKEQWILTARQCFSSCHMPLTGYEVWLGTLFQNPQHGEPSLQRVPVAKMVCGPSGSQLVLLKLERSVTLNQRVALICLPPEWYVVPPGTKCEIAGWGETKGTGNDTVLNVALLNVISNQECNIKHRGRVRESEMCTEGLLAPVGACEGDYGGPLACFTHNCWVLEGIIIPNRVCARSRWPAVFTRVSVFVDWIHKVMRLG"}}, "tested_on": "six V600E BRAF melanoma cell lines", "experiment": "Screening of recombinant RTK ligands for ability to confer resistance to BRAFi (PLX4720) or MEKi (PD184352) (Table 4)", "format": "cell-based, human", "how_it_was_run": "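Six V600E BRAF melanoma lines treated with PLX4720 or PD184352 after addition of 22 recombinant RTK ligands, scored for drug resistance. Activation of selected RTKs confirmed by western blotting and high-throughput tyrosine kinase phosphorylation profiling.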"}
{"molecule": "B1", "values": [{"measurement": "ability of recombinant RTK ligand to confer resistance", "setting": "A2058, PD184352 - 1 uM, ligand 0.4 ng/ml", "value": 1.06}, {"measurement": "ability of recombinant RTK ligand to confer resistance", "setting": "A2058, PD184352 - 1 uM, ligand 1.6 ng/ml", "value": 0.98}, {"measurement": "ability of recombinant RTK ligand to confer resistance", "setting": "A2058, PD184352 - 1 uM, ligand 6.25 ng/ml", "value": 1.03}, {"measurement": "ability of recombinant RTK ligand to confer resistance", "setting": "A2058, PD184352 - 1 uM, ligand 25 ng/ml", "value": 1.09}, {"measurement": "ability of recombinant RTK ligand to confer resistance", "setting": "A2058, PD184352 - 1 uM, ligand 100 ng/ml", "value": 1.05}, {"measurement": "ability of recombinant RTK ligand to confer resistance", "setting": "A2058, PLX4720 - 2 uM, ligand 0.4 ng/ml", "value": 1.04}, {"measurement": "ability of recombinant RTK ligand to confer resistance", "setting": "A2058, PLX4720 - 2 uM, ligand 1.6 ng/ml", "value": 1.02}, {"measurement": "ability of recombinant RTK ligand to confer resistance", "setting": "A2058, PLX4720 - 2 uM, ligand 6.25 ng/ml", "value": 1.05}, {"measurement": "ability of recombinant RTK ligand to confer resistance", "setting": "A2058, PLX4720 - 2 uM, ligand 25 ng/ml", "value": 1.04}, {"measurement": "ability of recombinant RTK ligand to confer resistance", "setting": "A2058, PLX4720 - 2 uM, ligand 100 ng/ml", "value": 1.05}, {"measurement": "ability of recombinant RTK ligand to confer resistance", "setting": "C32, PD184352 - 1 uM, ligand 0.4 ng/ml", "value": 0.99}, {"measurement": "ability of recombinant RTK ligand to confer resistance", "setting": "C32, PD184352 - 1 uM, ligand 1.6 ng/ml", "value": 1.02}, {"measurement": "ability of recombinant RTK ligand to confer resistance", "setting": "C32, PD184352 - 1 uM, ligand 6.25 ng/ml", "value": 1.07}, {"measurement": "ability of recombinant RTK ligand to confer resistance", "setting": "C32, PD184352 - 1 uM, ligand 25 ng/ml", "value": 1.01}, {"measurement": "ability of recombinant RTK ligand to confer resistance", "setting": "C32, PD184352 - 1 uM, ligand 100 ng/ml", "value": 0.95}, {"measurement": "ability of recombinant RTK ligand to confer resistance", "setting": "C32, PLX4720 - 2 uM, ligand 0.4 ng/ml", "value": 1.07}, {"measurement": "ability of recombinant RTK ligand to confer resistance", "setting": "C32, PLX4720 - 2 uM, ligand 1.6 ng/ml", "value": 1.01}, {"measurement": "ability of recombinant RTK ligand to confer resistance", "setting": "C32, PLX4720 - 2 uM, ligand 6.25 ng/ml", "value": 1.04}, {"measurement": "ability of recombinant RTK ligand to confer resistance", "setting": "C32, PLX4720 - 2 uM, ligand 25 ng/ml", "value": 1.02}, {"measurement": "ability of recombinant RTK ligand to confer resistance", "setting": "C32, PLX4720 - 2 uM, ligand 100 ng/ml", "value": 0.95}, {"measurement": "ability of recombinant RTK ligand to confer resistance", "setting": "Colo 829, PD184352 - 1 uM, ligand 0.4 ng/ml", "value": 1.03}, {"measurement": "ability of recombinant RTK ligand to confer resistance", "setting": "Colo 829, PD184352 - 1 uM, ligand 1.6 ng/ml", "value": 0.98}, {"measurement": "ability of recombinant RTK ligand to confer resistance", "setting": "Colo 829, PD184352 - 1 uM, ligand 6.25 ng/ml", "value": 1.01}, {"measurement": "ability of recombinant RTK ligand to confer resistance", "setting": "Colo 829, PD184352 - 1 uM, ligand 25 ng/ml", "value": 0.96}, {"measurement": "ability of recombinant RTK ligand to confer resistance", "setting": "Colo 829, PD184352 - 1 uM, ligand 100 ng/ml", "value": 0.93}, {"measurement": "ability of recombinant RTK ligand to confer resistance", "setting": "Colo 829, PLX4720 - 2 uM, ligand 0.4 ng/ml", "value": 0.98}, {"measurement": "ability of recombinant RTK ligand to confer resistance", "setting": "Colo 829, PLX4720 - 2 uM, ligand 1.6 ng/ml", "value": 0.94}, {"measurement": "ability of recombinant RTK ligand to confer resistance", "setting": "Colo 829, PLX4720 - 2 uM, ligand 6.25 ng/ml", "value": 1.03}, {"measurement": "ability of recombinant RTK ligand to confer resistance", "setting": "Colo 829, PLX4720 - 2 uM, ligand 25 ng/ml", "value": 0.97}, {"measurement": "ability of recombinant RTK ligand to confer resistance", "setting": "Colo 829, PLX4720 - 2 uM, ligand 100 ng/ml", "value": 0.99}, {"measurement": "ability of recombinant RTK ligand to confer resistance", "setting": "G-361, PD184352 - 1 uM, ligand 0.4 ng/ml", "value": 1.04}, {"measurement": "ability of recombinant RTK ligand to confer resistance", "setting": "G-361, PD184352 - 1 uM, ligand 1.6 ng/ml", "value": 0.96}, {"measurement": "ability of recombinant RTK ligand to confer resistance", "setting": "G-361, PD184352 - 1 uM, ligand 6.25 ng/ml", "value": 0.92}, {"measurement": "ability of recombinant RTK ligand to confer resistance", "setting": "G-361, PD184352 - 1 uM, ligand 25 ng/ml", "value": 0.98}, {"measurement": "ability of recombinant RTK ligand to confer resistance", "setting": "G-361, PD184352 - 1 uM, ligand 100 ng/ml", "value": 0.90}, {"measurement": "ability of recombinant RTK ligand to confer resistance", "setting": "G-361, PLX4720 - 2 uM, ligand 0.4 ng/ml", "value": 1.00}, {"measurement": "ability of recombinant RTK ligand to confer resistance", "setting": "G-361, PLX4720 - 2 uM, ligand 1.6 ng/ml", "value": 0.89}, {"measurement": "ability of recombinant RTK ligand to confer resistance", "setting": "G-361, PLX4720 - 2 uM, ligand 6.25 ng/ml", "value": 0.91}, {"measurement": "ability of recombinant RTK ligand to confer resistance", "setting": "G-361, PLX4720 - 2 uM, ligand 25 ng/ml", "value": 0.93}, {"measurement": "ability of recombinant RTK ligand to confer resistance", "setting": "G-361, PLX4720 - 2 uM, ligand 100 ng/ml", "value": 0.88}, {"measurement": "ability of recombinant RTK ligand to confer resistance", "setting": "SK-MEL-5, PD184352 - 1 uM, ligand 0.4 ng/ml", "value": 0.94}, {"measurement": "ability of recombinant RTK ligand to confer resistance", "setting": "SK-MEL-5, PD184352 - 1 uM, ligand 1.6 ng/ml", "value": 1.11}, {"measurement": "ability of recombinant RTK ligand to confer resistance", "setting": "SK-MEL-5, PD184352 - 1 uM, ligand 6.25 ng/ml", "value": 1.00}, {"measurement": "ability of recombinant RTK ligand to confer resistance", "setting": "SK-MEL-5, PD184352 - 1 uM, ligand 25 ng/ml", "value": 0.99}, {"measurement": "ability of recombinant RTK ligand to confer resistance", "setting": "SK-MEL-5, PD184352 - 1 uM, ligand 100 ng/ml", "value": 1.11}, {"measurement": "ability of recombinant RTK ligand to confer resistance", "setting": "SK-MEL-5, PLX4720 - 2 uM, ligand 0.4 ng/ml", "value": 0.87}, {"measurement": "ability of recombinant RTK ligand to confer resistance", "setting": "SK-MEL-5, PLX4720 - 2 uM, ligand 1.6 ng/ml", "value": 1.03}, {"measurement": "ability of recombinant RTK ligand to confer resistance", "setting": "SK-MEL-5, PLX4720 - 2 uM, ligand 6.25 ng/ml", "value": 0.98}, {"measurement": "ability of recombinant RTK ligand to confer resistance", "setting": "SK-MEL-5, PLX4720 - 2 uM, ligand 25 ng/ml", "value": 1.01}, {"measurement": "ability of recombinant RTK ligand to confer resistance", "setting": "SK-MEL-5, PLX4720 - 2 uM, ligand 100 ng/ml", "value": 1.12}, {"measurement": "ability of recombinant RTK ligand to confer resistance", "setting": "SK-MEL-28, PD184352 - 1 uM, ligand 0.4 ng/ml", "value": 0.95}, {"measurement": "ability of recombinant RTK ligand to confer resistance", "setting": "SK-MEL-28, PD184352 - 1 uM, ligand 1.6 ng/ml", "value": 0.94}, {"measurement": "ability of recombinant RTK ligand to confer resistance", "setting": "SK-MEL-28, PD184352 - 1 uM, ligand 6.25 ng/ml", "value": 1.00}, {"measurement": "ability of recombinant RTK ligand to confer resistance", "setting": "SK-MEL-28, PD184352 - 1 uM, ligand 25 ng/ml", "value": 1.01}, {"measurement": "ability of recombinant RTK ligand to confer resistance", "setting": "SK-MEL-28, PD184352 - 1 uM, ligand 100 ng/ml", "value": 0.97}, {"measurement": "ability of recombinant RTK ligand to confer resistance", "setting": "SK-MEL-28, PLX4720 - 2 uM, ligand 0.4 ng/ml", "value": 0.92}, {"measurement": "ability of recombinant RTK ligand to confer resistance", "setting": "SK-MEL-28, PLX4720 - 2 uM, ligand 1.6 ng/ml", "value": 1.02}, {"measurement": "ability of recombinant RTK ligand to confer resistance", "setting": "SK-MEL-28, PLX4720 - 2 uM, ligand 6.25 ng/ml", "value": 1.00}, {"measurement": "ability of recombinant RTK ligand to confer resistance", "setting": "SK-MEL-28, PLX4720 - 2 uM, ligand 25 ng/ml", "value": 0.97}, {"measurement": "ability of recombinant RTK ligand to confer resistance", "setting": "SK-MEL-28, PLX4720 - 2 uM, ligand 100 ng/ml", "value": 0.93}]}
